Data: patent US20220259327A1 (published 2022)

T1: cyCD19 ECD (cynomolgus, UniProt A0A2K5W8L9 20-292)
T1 construct: extracellular domain; also called cynomolgus CD19 extracellular domain
T1 sequence: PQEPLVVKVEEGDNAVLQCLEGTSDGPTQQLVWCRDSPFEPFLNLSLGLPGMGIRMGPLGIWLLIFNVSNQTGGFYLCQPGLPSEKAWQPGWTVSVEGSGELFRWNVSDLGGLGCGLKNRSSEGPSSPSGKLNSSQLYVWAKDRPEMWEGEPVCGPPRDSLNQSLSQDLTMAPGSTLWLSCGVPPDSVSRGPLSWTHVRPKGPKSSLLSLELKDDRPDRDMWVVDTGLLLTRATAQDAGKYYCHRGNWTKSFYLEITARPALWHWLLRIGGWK


Molecular target: T1, cyCD19 ECD
Test: binding to cyCD19 ECD, method not stated

Row | EC50 | Binder
1 | 0.313 µg/mL | wild-type humanized anti-human CD19 antibody (var.0) (antibody, V domains shown) VH: QVQLVQSGAEVKKPGASVKVSCKASGYTFTDYIMHWVRQAPGQGLEWMGYINPYNDGSKYTEKFNGKATMTSDTSISTAYMELSRLRSDDTAVYYCARGTYYYGSALFDYWGQGTTVTVSS VL: DIVMTQTPLSLSVTPGQPASISCKSSQSLENSNGNTYLNWYLQKPGQSPQLLIYRVSKRFSGVPDRFSGSGSGTDFTLKISRVEAEDVGVYYCLQLTHVPYTFGQGTKLEIK
2 | 0.435 µg/mL | humanized anti-human CD19 antibody var.9 (S27eP/N28S) (antibody, V domains shown) VH: QVQLVQSGAEVKKPGASVKVSCKASGYTFTDYIMHWVRQAPGQGLEWMGYINPYNDGSKYTEKFQGRVTMTSDTSISTAYMELSRLRSDDTAVYYCARGTYYYGSALFDYWGQGTTVTVSS VL: DIVMTQTPLSLSVTPGQPASISCKSSQSLENPSGNTYLNWYLQKPGQSPQLLIYRVSKRFSGVPDRFSGSGSGTDFTLKISRVEAEDVGVYYCLQLTHVPYTFGQGTKLEIK
3 | 0.255 µg/mL | humanized anti-human CD19 antibody var.5 (S27eP), named clone 8B8-018 (antibody, V domains shown, also called variant 5) VH: QVQLVQSGAEVKKPGASVKVSCKASGYTFTDYIMHWVRQAPGQGLEWMGYINPYNDGSKYTEKFQGRVTMTSDTSISTAYMELSRLRSDDTAVYYCARGTYYYGSALFDYWGQGTTVTVSS VL: DIVMTQTPLSLSVTPGQPASISCKSSQSLENPNGNTYLNWYLQKPGQSPQLLIYRVSKRFSGVPDRFSGSGSGTDFTLKISRVEAEDVGVYYCLQLTHVPYTFGQGTKLEIK
